According to paper PMC8080067, “Tight binding of cytochrome b5 to cytochrome P450 17A1 is a critical feature of stimulation of C21 steroid lyase activity and androgen synthesis” (The Journal of Biological Chemistry, 2021):
Changes are numbered by the printed parent chain.

Legend:
[1] = biological target: T1, WT P450 17A1 (Homo sapiens, UniProt P05093); format: biochemical; design: made in house; host or cells: Escherichia coli (P450 17A1 in JM109)
T1 sequence (P05093 1-508): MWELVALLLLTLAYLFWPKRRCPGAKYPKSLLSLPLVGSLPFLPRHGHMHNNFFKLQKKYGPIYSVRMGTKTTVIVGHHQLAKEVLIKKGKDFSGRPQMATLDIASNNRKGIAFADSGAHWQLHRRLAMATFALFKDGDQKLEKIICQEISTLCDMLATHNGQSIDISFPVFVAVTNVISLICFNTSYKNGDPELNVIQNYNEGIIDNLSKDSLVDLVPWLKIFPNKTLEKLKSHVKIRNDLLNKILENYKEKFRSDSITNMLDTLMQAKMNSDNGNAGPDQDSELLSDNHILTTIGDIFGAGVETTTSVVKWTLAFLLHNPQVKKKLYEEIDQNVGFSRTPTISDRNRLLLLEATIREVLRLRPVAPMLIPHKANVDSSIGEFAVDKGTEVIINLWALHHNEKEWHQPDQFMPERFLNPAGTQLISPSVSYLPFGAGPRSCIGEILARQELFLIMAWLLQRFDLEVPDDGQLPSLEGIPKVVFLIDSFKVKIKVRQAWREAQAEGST
Protocol: Figure S4. Stimulation of lyase activities by b5, T70C- b5, and NanoTemper Blue-T70C-b5. Catalytic assays for the lyase reactions were performed and analyzed as described in the main text.

[2] = test system: P450 17A1; design: method as in PMID 30468857; details: SPR; cited from earlier work
[3] = biological target: T2, P450 17A1 R358Q variant (Homo sapiens, UniProt P05093, R358Q)
T2 sequence (P05093 1-508 R358Q): T1 sequence (P05093 1-508) with R358Q
Protocol: (§1) P450 catalytic activity assays to measure steroid hydroxylation and lyase reactions were carried out as described previously ([23], [37], [64]).
(§2) The reactions were initiated by adding an NADPH-regenerating system (final concentrations of 15 mM glucose 6-phosphate, 1.5 mM NADP^+, and 1 IU ml^−1 glucose 6-phosphate dehydrogenase) ([75]) and terminated by quenching and extracting with 2.0 ml CH2Cl2. Aliquots of the organic phases were dried and then dissolved in 100 μl of a CH3CN/H2O (1:1, v/v) mixture. […] The extraction procedure was then repeated, and the (Δ^4) reaction products were analyzed in a Waters Acquity UPLC system using a BEH C18 octadecylsilane column (2.1 mm × 100 mm, 1.7 μm). The reaction products were resolved using a mobile phase composed of solvents A (70% CH3OH, 30% H2O, v/v) and B (CH3CN), at a flow rate of 0.2 ml min^−1. The mobile phase linear gradient proceeded as follows: 0 to 1 min, 5% B; 4 min, 30% B; 4.5 min, 40% B; 4.55 to 6.75 min, 95% BA; and 7 to 10 min, 5% B. The reaction products were identified by coelution with commercial standards and quantified by the A243 peak areas. Steady-state kinetic parameters were estimated using nonlinear regression of hyperbolic fits in GraphPad Prism software, with equations used for kcat and the specificity constant kcat/Km ([76]): Y = (ksp ∗ X)/(1 + (ksp ∗ X/kcat)) and then deriving Km by division.

[4] = biological target: T3, P450 17A1 R347H variant (Homo sapiens, UniProt P05093, R347H)
T3 sequence (P05093 1-508 R347H): T1 sequence (P05093 1-508) with R347H
Protocol: as §1, §2

B1: b5: recombinant human cytochrome b5, unlabeled (protein)
chain: MAEQSDEAVKYYTLEEIQKHNHSKSTWLILHHKVYDLTKFLEEHPGGEEVLREQAGGDATENFEDVGHSTDAREMSKTFIIGELHPDDRPKLNKPPETLITTIDSSSS
- stimulation of lyase activities [1]: stimulated by b5 in a concentration-dependent manner
- on-rate constants [2]: 360 to 5000 M⁻¹ s⁻¹
- stimulation of lyase reactions [3]: did not display b5 concentration-dependent stimulation
- stimulation of lyase reactions [4]: did not display b5 concentration-dependent stimulation
